Data from PMC10397247.
Each block holds one binder with its values, some of them ahead of it.

What was measured:
[1] = molecular target: T1, 4H3843-bA; assay: two-hybrid library CCNG1;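 further: natural log of median RNA to DNA barcode read ratio; higher means stronger binding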
T1 chain: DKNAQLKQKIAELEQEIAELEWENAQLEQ

[2] = molecular target: T2, 4H3907-bA; assay: two-hybrid library CCNG1;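 further: natural log of median RNA to DNA barcode read ratio; higher means stronger binding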
T2 chain: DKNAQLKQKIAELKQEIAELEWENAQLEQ

[3] = molecular target: T3, 4H1193-bA; assay: two-hybrid library CCNG1;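 further: natural log of median RNA to DNA barcode read ratio; higher means stronger binding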
T3 chain: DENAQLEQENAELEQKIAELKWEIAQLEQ

[4] = molecular target: T4, 4H918-bA; assay: two-hybrid library CCNG1;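 further: natural log of median RNA to DNA barcode read ratio; higher means stronger binding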
T4 chain: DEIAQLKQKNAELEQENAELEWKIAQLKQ

[5] = molecular target: T5, 4H953-bA; assay: two-hybrid library CCNG1
T5 chain: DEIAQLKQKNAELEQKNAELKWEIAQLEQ

[6] = molecular target: T6, 4H3189-bA; assay: two-hybrid library CCNG1
T6 chain: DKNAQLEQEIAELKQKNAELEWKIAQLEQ

[7] = molecular target: T7, 4H2697-bA; assay: two-hybrid library CCNG1
T7 chain: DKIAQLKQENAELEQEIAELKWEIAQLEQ

[8] = molecular target: T8, 4H2667-bA; assay: two-hybrid library CCNG1
T8 chain: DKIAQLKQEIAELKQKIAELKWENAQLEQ

[9] = molecular target: T9, 4H3601-bA; assay: two-hybrid library CCNG1
T9 chain: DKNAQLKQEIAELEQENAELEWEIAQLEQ

[10] = molecular target: T10, 4H968-bN; assay: two-hybrid library CCNG1
T10 chain: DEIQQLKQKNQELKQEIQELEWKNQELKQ

[11] = molecular target: T11, 4H1369-bA; assay: two-hybrid library CCNG1
T11 chain: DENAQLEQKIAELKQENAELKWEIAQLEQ

[12] = molecular target: T12, 4H687-bA; assay: two-hybrid library CCNG1
T12 chain: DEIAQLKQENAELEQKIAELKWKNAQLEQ

[13] = molecular target: T13, 4H454-bH; assay: two-hybrid library CCNG1
T13 chain: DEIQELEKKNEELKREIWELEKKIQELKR

[14] = molecular target: T14, 4H797-bA; assay: two-hybrid library CCNG1
T14 chain: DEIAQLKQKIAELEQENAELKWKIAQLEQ

[15] = molecular target: T15, 4H607-bA; assay: two-hybrid library CCNG1
T15 chain: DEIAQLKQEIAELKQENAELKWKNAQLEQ

[16] = molecular target: T16, 4H4001-bA; assay: two-hybrid library CCNG1
T16 chain: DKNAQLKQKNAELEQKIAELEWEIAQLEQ

[17] = molecular target: T17, 4H1845-bA; assay: two-hybrid library CCNG1
T17 chain: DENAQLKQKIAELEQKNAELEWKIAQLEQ

[18] = molecular target: T18, 4H883-bA; assay: two-hybrid library CCNG1
T18 chain: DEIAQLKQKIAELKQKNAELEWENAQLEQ

[19] = molecular target: T19, 4H2576-bA; assay: two-hybrid library CCNG1
T19 chain: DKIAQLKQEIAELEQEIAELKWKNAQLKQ

[20] = molecular target: T20, 4H370-bA; assay: two-hybrid library CCNG1
T20 chain: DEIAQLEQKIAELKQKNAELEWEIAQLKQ

[21] = molecular target: T21, P9A; assay: two-hybrid library CCNG1
T21 chain: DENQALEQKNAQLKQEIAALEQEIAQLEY

[22] = molecular target: T22, 4H3782-bA; assay: two-hybrid library CCNG1
T22 chain: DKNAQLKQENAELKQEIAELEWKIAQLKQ

[23] = molecular target: T23, 4H1446-bA; assay: two-hybrid library CCNG1
T23 chain: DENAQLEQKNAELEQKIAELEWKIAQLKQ

[24] = molecular target: T24, 4H1406-bA; assay: two-hybrid library CCNG1
T24 chain: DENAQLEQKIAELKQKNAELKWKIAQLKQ

[25] = molecular target: T25, 4H2610-bA; assay: two-hybrid library CCNG1
T25 chain: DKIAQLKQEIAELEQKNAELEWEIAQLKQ

[26] = molecular target: T26, 4H72-bA; assay: two-hybrid library CCNG1
T26 chain: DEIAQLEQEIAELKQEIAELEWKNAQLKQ

[27] = molecular target: T27, 4H1387-bA; assay: two-hybrid library CCNG1
T27 chain: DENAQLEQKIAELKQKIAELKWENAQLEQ

[28] = molecular target: T28, 4H462-bA; assay: two-hybrid library CCNG1
T28 chain: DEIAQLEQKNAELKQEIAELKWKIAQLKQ

[29] = molecular target: T29, 4H1328-bA; assay: two-hybrid library CCNG1
T29 chain: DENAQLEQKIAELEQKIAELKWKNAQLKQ

[30] = molecular target: T30, 4H331-bA; assay: two-hybrid library CCNG1
T30 chain: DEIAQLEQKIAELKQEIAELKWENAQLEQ

[31] = molecular target: T31, 4H4038-bA; assay: two-hybrid library CCNG1
T31 chain: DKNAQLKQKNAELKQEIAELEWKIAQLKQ

[32] = molecular target: T32, 4H568-bA; assay: two-hybrid library CCNG1
T32 chain: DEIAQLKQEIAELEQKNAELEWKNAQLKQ

[33] = molecular target: T33, 4H3606-bA; assay: two-hybrid library CCNG1
T33 chain: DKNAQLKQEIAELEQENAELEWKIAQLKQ

[34] = molecular target: T34, 4H967-bA; assay: two-hybrid library CCNG1
T34 chain: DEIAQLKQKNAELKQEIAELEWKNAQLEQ

[35] = molecular target: T35, 4H3592-bA; assay: two-hybrid library CCNG1
T35 chain: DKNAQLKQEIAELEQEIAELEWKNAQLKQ

[36] = molecular target: T36, 4H140-AA; assay: two-hybrid library CCmax; details: mean of both orientations
T36 chain: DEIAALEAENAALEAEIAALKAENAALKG

[37] = molecular target: GCN2_T; assay: two-hybrid library CCmax
[38] = molecular target: T37, 4H2750-AA; assay: two-hybrid library CCmax
T37 chain: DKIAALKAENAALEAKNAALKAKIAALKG

[39] = molecular target: T38, 4H2600-AA; assay: two-hybrid library CCmax; details: mean of both orientations
T38 chain: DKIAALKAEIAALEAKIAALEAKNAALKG

[40] = molecular target: T39, 4H355-AA; assay: two-hybrid library CCmax; details: mean of both orientations
T39 chain: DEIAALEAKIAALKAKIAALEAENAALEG

[41] = molecular target: 4H_GCN4; assay: two-hybrid library CCmax
4H_GCN4, sequence (chain, as listed by the source): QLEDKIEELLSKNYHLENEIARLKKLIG

[42] = molecular target: T40, 4H1802-AA; assay: two-hybrid library CCmax; details: mean of both orientations
T40 chain: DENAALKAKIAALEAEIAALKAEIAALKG

[43] = molecular target: T41, 4H1136-AA; assay: two-hybrid library CCmax
T41 chain: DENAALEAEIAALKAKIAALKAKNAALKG

[44] = molecular target: T42, 4H1257-AA; assay: two-hybrid library CCmax; details: mean of both orientations
T42 chain: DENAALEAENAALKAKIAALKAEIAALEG

[45] = molecular target: T43, 4H2721-AA; assay: two-hybrid library CCmax; details: mean of both orientations
T43 chain: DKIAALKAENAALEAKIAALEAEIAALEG

[46] = molecular target: T44, 4H3651-AA; assay: two-hybrid library CCmax; details: mean of both orientations
T44 chain: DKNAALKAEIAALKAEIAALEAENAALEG

[47] = molecular target: T45, 4H58-AA; assay: two-hybrid library CCmax; details: mean of both orientations
T45 chain: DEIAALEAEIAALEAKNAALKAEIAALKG

[48] = molecular target: T46, 4H_APH; assay: two-hybrid library CCmax; details: mean of both orientations
T46 chain: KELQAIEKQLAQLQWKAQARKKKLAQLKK

[49] = molecular target: T47, 4H3020-AA; assay: two-hybrid library CCmax; details: mean of both orientations
T47 chain: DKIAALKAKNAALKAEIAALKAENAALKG

[50] = molecular target: T48, 4H3705-AA; assay: two-hybrid library CCmax; details: mean of both orientations
T48 chain: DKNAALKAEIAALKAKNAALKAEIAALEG

[51] = molecular target: T49, 4H535-AA; assay: two-hybrid library CCmax; details: mean of both orientations
T49 chain: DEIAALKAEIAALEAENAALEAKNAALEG

[52] = molecular target: T50, 4H486-AA; assay: two-hybrid library CCmax; details: mean of both orientations
T50 chain: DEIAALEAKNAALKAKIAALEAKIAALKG

[53] = molecular target: T51, 4H_BCR; assay: two-hybrid library CCmax; details: mean of both orientations
T51 chain: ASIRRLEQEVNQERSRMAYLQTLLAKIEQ

[54] = molecular target: T52, 4H895-AA; assay: two-hybrid library CCmax; details: mean of both orientations
T52 chain: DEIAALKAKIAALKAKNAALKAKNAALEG

[55] = molecular target: T53, 4H3782-AA; assay: two-hybrid library CCmax; details: mean of both orientations
T53 chain: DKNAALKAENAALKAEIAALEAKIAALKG

[56] = molecular target: T54, 4H3365-AA; assay: two-hybrid library CCmax; details: mean of both orientations
T54 chain: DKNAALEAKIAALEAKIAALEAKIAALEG

[57] = molecular target: T55, 4H465-AA; assay: two-hybrid library CCmax; details: mean of both orientations
T55 chain: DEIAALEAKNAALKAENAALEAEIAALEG

[58] = molecular target: T56, 4H2898-AA; assay: two-hybrid library CCmax; details: mean of both orientations
T56 chain: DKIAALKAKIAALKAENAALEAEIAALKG

[59] = molecular target: T57, 4H491-bN; assay: two-hybrid library CCNG1
T57 chain: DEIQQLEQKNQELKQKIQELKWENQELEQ

[60] = molecular target: T58, 4H2696-bN; assay: two-hybrid library CCNG1
T58 chain: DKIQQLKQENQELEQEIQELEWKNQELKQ

[61] = molecular target: T59, 4H2937-bN; assay: two-hybrid library CCNG1
T59 chain: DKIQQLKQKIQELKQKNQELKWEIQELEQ

[62] = molecular target: T60, 4H342-bN; assay: two-hybrid library CCNG1
T60 chain: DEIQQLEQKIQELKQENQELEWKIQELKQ

[63] = molecular target: T61, 4H2883-bN; assay: two-hybrid library CCNG1
T61 chain: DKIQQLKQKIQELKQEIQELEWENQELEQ

[64] = molecular target: T62, 4H2944-bN; assay: two-hybrid library CCNG1
T62 chain: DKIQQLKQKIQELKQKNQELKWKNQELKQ

[65] = molecular target: T63, 4H48-bN; assay: two-hybrid library CCNG1
T63 chain: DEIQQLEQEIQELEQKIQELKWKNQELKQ

interaction score [1]: 0.453 | interaction score [2]: -0.444 | interaction score [3]: -1.02 | interaction score [4]: -1.33 | interaction score [5]: -1.01 | interaction score [6]: -0.992 | interaction score [7]: -0.731 | interaction score [8]: -0.522 | interaction score [9]: -0.992 | interaction score [10]: 1.16 | interaction score [11]: -1.1 | interaction score [12]: -0.956 | interaction score [13]: 0.453 | interaction score [14]: -1.03 | interaction score [15]: -0.928 | interaction score [16]: 0.926 | interaction score [17]: -0.841 | interaction score [18]: -0.805 | interaction score [19]: 1.08 | interaction score [20]: -1.27 | interaction score [21]: 0.624 | interaction score [22]: 1.7 | interaction score [23]: -0.515 | interaction score [24]: -0.0377 | interaction score [25]: -0.547 | interaction score [26]: -1.83 | interaction score [27]: -0.852 | interaction score [28]: 0.96 | interaction score [29]: -0.132 | interaction score [30]: -1.28 | interaction score [31]: 2.35 | interaction score [32]: -1.33 | interaction score [33]: -0.984 | interaction score [34]: -0.577 | interaction score [35]: -0.214
Binder: DENAQLEQENAELEQKIAELKWEIAQLEQ [4H1193-bA]

interaction score [36]: -1.41 | interaction score [37]: -1.68 | interaction score [38]: -1.46 | interaction score [39]: 0.398 | interaction score [40]: 0.718 | interaction score [41]: -1.83 | interaction score [42]: -1.42 | interaction score [43]: -0.12 | interaction score [44]: 0.673 | interaction score [45]: -1.15 | interaction score [46]: 2.2 | interaction score [47]: -0.193 | interaction score [48]: -1.64 | interaction score [49]: -1.2 | interaction score [50]: -1.5 | interaction score [51]: 1.79 | interaction score [52]: -0.319 | interaction score [53]: -1.73 | interaction score [54]: -1.31 | interaction score [55]: -0.406 | interaction score [56]: -1.36 | interaction score [57]: -1.44 | interaction score [58]: -0.29
Binder: DENAALEAEIAALKAKIAALKAKNAALKG [4H1136-AA]

interaction score [59]: 0.0322 | interaction score [60]: -0.134 | interaction score [61]: 0.131 | interaction score [62]: -0.885 | interaction score [63]: 1.32 | interaction score [64]: -0.274 | interaction score [65]: -1.05
Binder: DKIQQLKQENQELEQEIQELEWKNQELKQ [4H2696-bN]
